Measured values taken from IntAct's records for PubMed 31515488.

B1: Zinc finger and BTB domain-containing protein 49 (Homo sapiens), Q6ZSB9 (parent)
chain: MDPVATHSCHLLQQLHEQRIQGLLCDCMLVVKGVCFKAHKNVLAAFSQYFRSLFQNSSSQKNDVFHLDVKNVSGIGQILDFMYTSHLDLNQDNIQVMLDTAQCLQVQNVLSLCHTFLKSATVVQPPGMPCNSTLSLQSTLTPDATCVISENYPPHLLQECSADAQQNKTLDESHPHASPSVNRHHSAGEISKQAPDTSDGSCTELPFKQPNYYYKLRNFYSKQYHKHAAGPSQERVVEQPFAFSTSTDLTTVESQPCAVSHSECILESPEHLPSNFLAQPVNDSAPHPESDATCQQPVKQMRLKKAIHLKKLNFLKSQKYAEQVSEPKSDDGLTKRLESASKNTLEKASSQSAEEKESEEVVSCENFNCISETERPEDPAALEDQSQTLQSQRQYACELCGKPFKHPSNLELHKRSHTGEKPFECNICGKHFSQAGNLQTHLRRHSGEKPYICEICGKRFAASGDVQRHIIIHSGEKPHLCDICGRGFSNFSNLKEHKKTHTADKVFTCDECGKSFNMQRKLVKHRIRHTGERPYSCSACGKCFGGSGDLRRHVRTHTGEKPYTCEICNKCFTRSAVLRRHKKMHCKAGDESPDVLEELSQAIETSDLEKSQSSDSFSQDTSVTLMPVSVKLPVHPVENSVAEFDSHSGGSYCKLRSMIQPHGVSDQEKLSLDPGKLAKPQMQQTQPQAYAYSDVDTPAGGEPLQADGMAMIRSSLAALDNHGGDPLGSRASSTTYRNSEGQFFSSMTLWGLAMKTLQNENELDQ
B2: Tripartite motif-containing protein 29 (Homo sapiens), Q14134-1 (parent)
chain: MEAADASRSNGSSPEARDARSPSGPSGSLENGTKADGKDAKTTNGHGGEAAEGKSLGSALKPGEGRSALFAGNEWRRPIIQFVESGDDKNSNYFSMDSMEGKRSPYAGLQLGAAKKPPVTFAEKGELRKSIFSESRKPTVSIMEPGETRRNSYPRADTGLFSRSKSGSEEVLCDSCIGNKQKAVKSCLVCQASFCELHLKPHLEGAAFRDHQLLEPIRDFEARKCPVHGKTMELFCQTDQTCICYLCMFQEHKNHSTVTVEEAKAEKETELSLQKEQLQLKIIEIEDEAEKWQKEKDRIKSFTTNEKAILEQNFRDLVRDLEKQKEEVRAALEQREQDAVDQVKVIMDALDERAKVLHEDKQTREQLHSISDSVLFLQEFGALMSNYSLPPPLPTYHVLLEGEGLGQSLGNFKDDLLNVCMRHVEKMCKADLSRNFIERNHMENGGDHRYVNNYTNSFGGEWSAPDTMKRYSMYLTPKGGVRTSYQPSSPGRFTKETTQKNFNNLYGTKGNYTSRVWEYSSSIQNSDNDLPVVQGSSSFSLKGYPSLMRSQSPKAQPQTWKSGKQTMLSHYRPFYVNKGNGIGSNEAP
B3: Hypoxia-inducible factor 1-alpha inhibitor (Homo sapiens), Q9NWT6 (parent)
chain: MAATAAEAVASGSGEPREEAGALGPAWDESQLRSYSFPTRPIPRLSQSDPRAEELIENEEPVVLTDTNLVYPALKWDLEYLQENIGNGDFSVYSASTHKFLYYDEKKMANFQNFKPRSNREEMKFHEFVEKLQDIQQRGGEERLYLQQTLNDTVGRKIVMDFLGFNWNWINKQQGKRGWGQLTSNLLLIGMEGNVTPAHYDEQQNFFAQIKGYKRCILFPPDQFECLYPYPVHHPCDRQSQVDFDNPDYERFPNFQNVVGYETVVGPGDVLYIPMYWWHHIESLLNGGITITVNFWYKGAPTPKRIEYPLKAHQKVAIMRNIEKMLGEALGNPQEVGPLLNTMIKGRYN
B4: Max-like protein X (Homo sapiens), Q9UH92 (parent)
chain: MTEPGASPEDPWVKASPVGAHAGEGRAGRARARRGAGRRGASLLSPKSPTLSVPRGCREDSSHPACAKVEYAYSDNSLDPGLFVESTRKGSVVSRANSIGSTSASSVPNTDDEDSDYHQEAYKESYKDRRRRAHTQAEQKRRDAIKRGYDDLQTIVPTCQQQDFSIGSQKLSKAIVLQKTIDYIQFLHKEKKKQEEEVSTLRKDVTALKIMKVNYEQIVKAHQDNPHEGEDQVSDQVKFNVFQGIMDSLFQSFNASISVASFQELSACVFSWIEEHCKPQTLREIVIGVLHQLKNQLY
partner: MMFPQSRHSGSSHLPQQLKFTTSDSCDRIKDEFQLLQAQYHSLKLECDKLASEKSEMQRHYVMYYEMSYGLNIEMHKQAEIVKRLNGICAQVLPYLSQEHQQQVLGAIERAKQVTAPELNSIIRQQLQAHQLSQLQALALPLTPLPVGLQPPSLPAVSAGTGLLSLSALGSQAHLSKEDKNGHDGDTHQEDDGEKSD
B5: Keratin-associated protein 26-1 (Homo sapiens), Q6PEX3 (parent)
chain: MSCPNYCSGNSNSGSLRTSRHIPLTSIDLCPTSVSCGDVLYLPTSSQDHTWVTDNCQETCGEPTSCQPVHCETGNLETSCGSSTAYYVPRPCQGSSFLPASFFSSSCLPVSCRPQRYVSSGCRPLRPLLNSYQPIGDCVPNAYRPQFCLSKSCQPQNLLTSGCQPSSCLAYRPQSLHVVSSSLRPLGPLFSGCQPLTHVFSTCRPSCSGL

Variants of: B1
Conditions: with gopc_human GOPC

Row | Variant | effect of a mutation on the interaction
1 | P627A | with no effect
2 | G701D | with no effect

Variants of: B1
Conditions: with cep70_human CEP70, Q8NHQ1
Target sequence in this assay (Q8NHQ1 whole entry): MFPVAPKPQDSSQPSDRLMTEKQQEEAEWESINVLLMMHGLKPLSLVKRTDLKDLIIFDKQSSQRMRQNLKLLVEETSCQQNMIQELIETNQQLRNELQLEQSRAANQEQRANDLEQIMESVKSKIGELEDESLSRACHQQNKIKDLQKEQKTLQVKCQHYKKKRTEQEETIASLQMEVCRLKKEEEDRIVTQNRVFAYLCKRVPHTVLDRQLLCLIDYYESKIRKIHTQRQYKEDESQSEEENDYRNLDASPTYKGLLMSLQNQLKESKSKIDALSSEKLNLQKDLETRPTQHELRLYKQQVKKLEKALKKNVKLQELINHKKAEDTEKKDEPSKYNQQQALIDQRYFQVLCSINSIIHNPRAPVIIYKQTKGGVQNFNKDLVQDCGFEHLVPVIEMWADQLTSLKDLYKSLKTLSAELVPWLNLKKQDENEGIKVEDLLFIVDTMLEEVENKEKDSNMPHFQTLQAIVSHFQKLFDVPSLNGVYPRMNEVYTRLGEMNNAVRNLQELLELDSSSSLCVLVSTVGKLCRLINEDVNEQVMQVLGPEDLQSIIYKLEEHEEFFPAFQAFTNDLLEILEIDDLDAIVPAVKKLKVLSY

Row | Variant | effect of a mutation on the interaction
3 | P627A | with no effect
4 | G701D | with no effect

Variants of: B2
Conditions: with tri23_human TRIM23, P36406
tri23_human TRIM23, P36406, sequence (P36406 whole entry): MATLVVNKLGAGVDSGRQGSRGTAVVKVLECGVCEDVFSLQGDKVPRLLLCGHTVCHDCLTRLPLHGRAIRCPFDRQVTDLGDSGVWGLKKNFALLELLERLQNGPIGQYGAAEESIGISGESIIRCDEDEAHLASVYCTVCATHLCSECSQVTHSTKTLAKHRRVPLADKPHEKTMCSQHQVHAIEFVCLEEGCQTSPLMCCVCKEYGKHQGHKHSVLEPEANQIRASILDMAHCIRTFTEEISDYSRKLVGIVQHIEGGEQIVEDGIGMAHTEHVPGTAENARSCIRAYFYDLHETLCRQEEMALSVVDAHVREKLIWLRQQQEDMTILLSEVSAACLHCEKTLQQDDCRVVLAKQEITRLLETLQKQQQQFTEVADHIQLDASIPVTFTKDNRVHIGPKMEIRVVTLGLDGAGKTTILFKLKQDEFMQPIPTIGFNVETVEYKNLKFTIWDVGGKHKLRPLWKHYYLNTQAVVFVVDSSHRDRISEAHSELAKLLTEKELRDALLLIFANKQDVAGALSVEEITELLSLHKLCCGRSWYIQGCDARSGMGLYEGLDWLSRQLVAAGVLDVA

Row | Variant | effect of a mutation on the interaction
5 | S514F | with no effect

Variants of: B2
Conditions: with cep70_human CEP70, Q8NHQ1
Target sequence in this assay (Q8NHQ1 whole entry): as the sequence (Q8NHQ1 whole entry) above

Row | Variant | effect of a mutation on the interaction
6 | S514F | disrupting interaction strength

Variants of: B2
Conditions: with tri23_human TRIM23, P36406
Remark: another data set of the same source

Row | Variant | effect of a mutation on the interaction
7 | S91C | with no effect

Variants of: B2
Conditions: with cep70_human CEP70, Q8NHQ1
Remark: another data set of the same source
Target sequence in this assay (Q8NHQ1 whole entry): as above

Row | Variant | effect of a mutation on the interaction
8 | S91C | with no effect

Variants of: B3
Conditions: with asb9_human ASB9, Q96DX5
asb9_human ASB9, Q96DX5, sequence (Q96DX5 whole entry): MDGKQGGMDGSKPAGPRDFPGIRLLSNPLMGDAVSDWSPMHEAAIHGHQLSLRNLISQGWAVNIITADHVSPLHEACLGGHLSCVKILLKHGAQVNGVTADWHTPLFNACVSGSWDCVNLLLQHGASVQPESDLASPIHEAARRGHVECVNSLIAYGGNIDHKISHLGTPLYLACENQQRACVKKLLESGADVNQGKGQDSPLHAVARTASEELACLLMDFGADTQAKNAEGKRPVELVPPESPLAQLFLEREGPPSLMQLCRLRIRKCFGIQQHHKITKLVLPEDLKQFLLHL

Row | Variant | effect of a mutation on the interaction
9 | P41A | with no effect

Variants of: B4
Conditions: with tle5_human TLE5, Q08117

Row | Variant | effect of a mutation on the interaction
10 | Q223R | with no effect

Variants of: B5
Conditions: with grn_human GRN

Row | Variant | effect of a mutation on the interaction
11 | S26Y | disrupting interaction strength

Variants of: B5
Conditions: with ccnjl_human CCNJL

Row | Variant | effect of a mutation on the interaction
12 | S26Y | with no effect
